Patent US20060115837A1 (WASHINGTON UNIVERSITY, published 2006)

Columns and labels:
[1] = molecular target: West Nile Virus envelope protein on WNV virions (West Nile Virus) (UniProt Q9Q6P4); test: cell-based or functional assay
[2] = molecular target: T1, West Nile Virus envelope protein on WNV virions (West Nile Virus, UniProt Q9Q6P4 291-791); test: cell-based or functional assay
T1 sequence: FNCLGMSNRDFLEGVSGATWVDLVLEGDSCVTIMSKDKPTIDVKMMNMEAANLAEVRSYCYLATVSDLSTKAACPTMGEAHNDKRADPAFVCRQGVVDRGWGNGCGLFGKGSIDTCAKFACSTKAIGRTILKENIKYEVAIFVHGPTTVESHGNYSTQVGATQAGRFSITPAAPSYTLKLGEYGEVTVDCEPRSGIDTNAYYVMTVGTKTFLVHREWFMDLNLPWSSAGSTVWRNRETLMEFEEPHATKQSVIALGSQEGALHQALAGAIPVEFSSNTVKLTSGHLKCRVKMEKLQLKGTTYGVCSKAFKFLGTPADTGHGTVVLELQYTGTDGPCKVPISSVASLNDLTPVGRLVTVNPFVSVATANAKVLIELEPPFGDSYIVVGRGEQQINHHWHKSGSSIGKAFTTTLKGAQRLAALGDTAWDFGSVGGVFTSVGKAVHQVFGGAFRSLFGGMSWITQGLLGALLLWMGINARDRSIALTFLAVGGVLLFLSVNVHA

Molecule: monoclonal antibody E60
- blockade of cellular attachment of WNV to Vero cells (cell-associated viral RNA by fluorogenic RT-PCR), fold reduction [1]: 8 to 9 fold

B1: monoclonal antibody E16 (antibody, V domains shown)
VH: QVQLQQSGSELMKPGASVQISCKATGYTFSDYWIEWVKQRPGHGLEWIGILCGTGRTRYNEKLKAMATFTADTSSNTAFMQLSSLTSEDSAVYYCARSASYGDYADYWGHGTTLTVSS
VL: DIVMTQSHKFMSTSVGDRVSITCKASQDVSTAVAWYQQKPGQSPKLLISWASTRHTGVPDRFTGSGSGTDYTLTISSVQAEDLALYYCQQHYTTPLTFGAGTKLELK
- blockade of cellular attachment of WNV to Vero cells (cell-associated viral RNA by fluorogenic RT-PCR), fold reduction [2]: 3.5 fold
